T1: hIL-18BP-hFc (human, UniProt O95998 31-194, limits assumed)
T1 sequence (looked up): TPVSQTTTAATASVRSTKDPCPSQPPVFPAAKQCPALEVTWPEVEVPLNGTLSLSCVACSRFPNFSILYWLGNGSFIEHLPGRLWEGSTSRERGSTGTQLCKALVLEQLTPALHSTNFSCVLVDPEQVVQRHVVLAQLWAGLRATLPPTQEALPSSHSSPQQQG

T2: hIL-18 receptor (hIL-18Rα and hIL-18Rβ) (human, UniProt Q13478 19-541; O95256 20-599)
T2 sequence (looked up) 1: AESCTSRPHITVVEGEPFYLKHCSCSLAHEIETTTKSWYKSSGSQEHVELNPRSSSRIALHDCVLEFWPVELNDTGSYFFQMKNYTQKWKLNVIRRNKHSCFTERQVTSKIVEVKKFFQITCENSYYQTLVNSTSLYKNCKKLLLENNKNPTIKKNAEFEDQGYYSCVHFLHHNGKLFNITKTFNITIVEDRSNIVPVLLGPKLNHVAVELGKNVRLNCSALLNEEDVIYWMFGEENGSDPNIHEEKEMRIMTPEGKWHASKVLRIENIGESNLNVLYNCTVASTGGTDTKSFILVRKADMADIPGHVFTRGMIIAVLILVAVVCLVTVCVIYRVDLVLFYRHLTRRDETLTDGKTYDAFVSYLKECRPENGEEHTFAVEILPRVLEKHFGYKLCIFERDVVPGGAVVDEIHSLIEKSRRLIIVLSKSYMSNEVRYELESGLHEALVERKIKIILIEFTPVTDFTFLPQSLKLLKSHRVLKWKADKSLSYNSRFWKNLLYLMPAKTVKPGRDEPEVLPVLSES
T2 sequence (looked up) 2: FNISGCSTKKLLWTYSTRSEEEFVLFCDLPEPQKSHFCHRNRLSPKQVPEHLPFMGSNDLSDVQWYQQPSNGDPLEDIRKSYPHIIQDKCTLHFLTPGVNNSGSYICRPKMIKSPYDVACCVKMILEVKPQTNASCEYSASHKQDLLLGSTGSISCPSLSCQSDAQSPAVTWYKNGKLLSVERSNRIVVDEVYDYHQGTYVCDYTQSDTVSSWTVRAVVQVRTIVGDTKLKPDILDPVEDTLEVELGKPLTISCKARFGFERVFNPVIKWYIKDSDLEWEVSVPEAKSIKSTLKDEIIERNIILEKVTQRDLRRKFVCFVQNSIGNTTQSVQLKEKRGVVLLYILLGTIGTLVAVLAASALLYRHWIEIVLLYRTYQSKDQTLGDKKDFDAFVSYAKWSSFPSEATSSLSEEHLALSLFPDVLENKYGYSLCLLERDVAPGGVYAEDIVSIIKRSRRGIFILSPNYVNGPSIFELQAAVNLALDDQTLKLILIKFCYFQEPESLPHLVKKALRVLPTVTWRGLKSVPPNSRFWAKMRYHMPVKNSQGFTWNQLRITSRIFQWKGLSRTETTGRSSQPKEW


Key:
Assay in all cases: cell-based or functional assay
hIL-18BP-hFc [1] = target: T1, hIL-18BP-hFc
[2] = target: T2, hIL-18 receptor (hIL-18Rα and hIL-18Rβ)
hIL-18BP-hFc [3] = target: T1, hIL-18BP-hFc; remark: listed apart in the source
[4] = target: T2, hIL-18 receptor (hIL-18Rα and hIL-18Rβ); remark: listed apart in the source

| Binder | EC50 (nM) in the Presence of 1 µg/mL hIL-18BP-hFc, PBMC assay (hIFNγ release) (hIL-18BP-hFc [1]) | EC50 Fold Change (+BP/-BP), PBMC assay (hIFNγ release) (hIL-18BP-hFc [1]) | EC50 (nM), PBMC assay (hIFNγ release) [2] | EC50 (nM) in the Presence of 1 µg/mL hIL-18BP-hFc, hIL-18 reporter assay (hIL-18BP-hFc [3]) | EC50 Fold Change (+BP/-BP), hIL-18 reporter assay (hIL-18BP-hFc [3]) | EC50 (nM), hIL-18 reporter assay [4] |
| --- | --- | --- | --- | --- | --- | --- |
| IL-18 variant polypeptide M11 (ligand) YFPKLRSKLSVIRNLNDQVLFIDQGNRPLFEDMTDSDCRDNAPRTIFIISMYKSSRNRGMAVTISVKCEKISTLSCENKIISFKEMNPPDGIKDTKSDIIFFQTSVPGHDNKMQFESSSYEGYFLACEKERDLFKLILKKEDELGDRSIMFTVQNED | 0.068 nM | 1.55 fold | 0.044 nM | 0.21 nM | 1.62 fold | 0.13 nM |
| IL-18 variant polypeptide M17 (ligand) YFPKLRSKLSVIRNLNDQVLFIDQGNRPLFEDMTDSDCRDNAPRTIFIISMYKLSTARGMAVTISVKCEKISTLSCENKIISFKEMNPPDGIKDTKSDIIFFQRSVPGHDNKMQFESSSYEGYFLACEKERDLFKLILKKEDELGDRSIMFTVQNED | 0.13 nM | 1 fold | 0.13 nM | 0.32 nM | 0.78 fold | 0.41 nM |
| IL-18 variant polypeptide M15 (ligand) YFPKLRSKLSVIRNLNDQVLFIDQGNRPLFEDMTDSDCRDNAPRTIFIISMYKSSYTRGMAVTISVKCEKISTLSCENKIISFKEMNPPDGIKDTKSDIIFFQRSVPGHDNKMQFESSSYEGYFLACEKERDLFKLILKKEDELGDRSIMFTVQNED | 0.036 nM | 0.73 fold | 0.049 nM | 0.12 nM | 0.92 fold | 0.13 nM |
| IL-18 variant polypeptide M12 (ligand) YFPKLKSKLSVIRNLNDQVLFIDQGNRPLFEDMTDSDCRDNAPRTIFIISMYKGSGARGMAVTISVKCEKISTLSCENKIISFKEMNPPDTIKDTKSDIIFFQRSVPGHDNKMQFESSSYEGYFLACEKERDLFKLILKKEDELGDRSIMFTVQNED | 0.045 nM | 1.05 fold | 0.043 nM | 0.03 nM | 0.75 fold | 0.04 nM |
| IL-18 variant polypeptide M21 (ligand) YFPKLRSKLSVIRNLNDQVLFIDQGNRPLFEDMTDSDCRDNAPRTIFIISMYKSSSTRGMAVTISVKCEKISTLSCENKIISFKEMNPPDGIKDTKSDIIFFQSSVPGHDNKMQFESSSYEGYFLACEKERDLFKLILKKEDELGDRSIMFTVQNED | 0.049 nM | 1.09 fold | 0.045 nM | 2.1 nM | 1.11 fold | 1.9 nM |
| IL-18 variant polypeptide M13 (ligand) YFPKLKSKLSVIRNLNDQVLFIDQGNRPLFEDMTDSDCRDNAPRTIFIISMYKQSIWRGMAVTISVKCEKISTLSCENKIISFKEMNPPDNIKDTKSDIIFFQRSVPGHDNKMQFESSSYEGYFLACEKERDLFKLILKKEDELGDRSIMFTVQNED | 0.025 nM | 1.25 fold | 0.02 nM | 0.026 nM | 0.74 fold | 0.035 nM |
